Measurements taken from PMC3642079.

B1: unnamed (parent)
chain 1: MNLEGGGRGGEFGMSAVSCGNGKLRQWLIDQIDSGKYPGLVWENEEKSIFRIPWKHAGKQDYNREEDAALFKAWALFKGKFREGIDKPDPPTWKTRLRCALNKSNDFEELVERSQLDISDPYKVYRIVPEGAKKGAKQLTLEDPQMSMSHPYTMTTPYPSLPAQQVHNYMMPPLDRSWRDYVPDQPHPEIPYQCPMTFGPRGHHWQGPACENGCQVTGTFYACAPPESQAPGVPTEPSIRSAEALAFSDCRLHICLYYREILVKELTTSSPEGCRISHGHTYDASNLDQVLFPYPEDNGQRKNIEKLLSHLERGVVLWMAPDGLYAKRLCQSRIYWDGPLALCNDRPNKLERDQTCKLFDTQQFLSELQAFAHHGRSLPRFQVTLCFGEEFPDPQRQRKLITAHVEPLLARQLYYFAQQNSGHFLRGYDLPEHISNPEDYHRSIRHSSIQE
chain 2: LILDSGLDTQHILCFVMAARQRLQDIRRGP
B2: unnamed (parent)
chain 1: MCDRNGGRRLRQWLIEQIDSSMYPGLIWENEEKSMFRIPWKHAGKQDYNQEVDASIFKAWAVFKGKFKEGDKAEPATWKTRLRCALNKSPDFEEVTDRSQLDISEPYKVYRIVPEEEQKCKLGVATAGCVNEVTEMECGRSEIDELIKEPSVDDYMGMIKRSPSPPEACRSQLLPDWWAQQPSTGVPLVTGYTTYDAHHSAFSQMVISFYYGGKLVGQATTTCPEGCRLSLSQPGLPGTKLYGPEGLELVRFPPADAIPSERQRQVTRKLFGHLERGVLLHSSRQGVFVKRLCQGRVFCSGNAVVCKGRPNKLERDEVVQVFDTSQFFRELQQFYNSQGRLPDGRVVLCFGEEFPDMAPLRSKLILVQIEQLYVRQLAEEAGKSCGAGSVMQAPEEPPPDQVFRMFPDICASHQRSFFRENQQITV
chain 2: B1 chain 2

Variants of: B1
Experiment: GST pull-down of S35-radiolabeled in vitro translated protein
Details: with partner chain of the complex shown; 5% of IVT input (input lane = 5 RBU); GST control lane = 0.5 RBU; parent: 14.1

| Variant | response [RBU] |
| --- | --- |
| chain 2 R20G R22G | 4.9 |
| chain 2 F15A | 0.5 |
| chain 2 C14A | 14 |

Variants of: B2
Experiment: as above
Details: with partner chain of the complex shown; 5% of IVT input (input lane = 5 RBU); GST control lane = 0.4 RBU; parent: 3.9

| Variant | response [RBU] |
| --- | --- |
| chain 2 C14A | 3.2 |
| chain 2 R20G R22G | 0.7 |
| chain 2 F15A | 0.6 |
